Source: patent US20040043438A1

How the values were obtained:
[1] = biological target: specific IgE bound to the surface of human basophils from birch pollen allergic patients; assay: cell-based or functional assay
[2] = biological target: serum IgE from a pool of birch allergic patients; assay: fluid-phase IgE-inhibition assay; competes with biotinylated Bet v 1.2801 for pooled serum IgE
[3] = biological target: serum IgE from a pool of birch allergic patients; assay: fluid-phase IgE-inhibition assay; competes with biotinylated Bet v 1 no. 2801 for pooled serum IgE

histamine release in human basophil: reduction of potency against Bet v 1.2801 [1] | factor by which the affinity is lowered against Bet v 1.2801 [2] | amount to reach 80% inhibition [3] | factor of decrease against recombinant Bet v 1 (at 80% inhibition) [3] | factor of decrease in affinity against recombinant Bet v 1 (at 50% inhibition) [3] | Binder
3 to 10 fold | 3 to 4 fold | – | – | – | Mutant Bet v 1 (2628) (protein) GVFNVETETTSVIPAARLFKAFILDGDNLFPKVAPQAISSVENISGNGGPGTIKKISFPEGFPFNYVKDRVDEVDHTNFKYNYSVIEGGPIGDTLESISNEIKIVATPDGGSILKISNKYHTKGDHEVKAEQVEASKEMGETLLRAVESYLLAHSDAYN
– | – | 400 ng | 20 fold | 5 fold | Bet v 1 (Asn28Thr, Lys32Gln, Glu45Ser, Pro108Gly) mutant (protein) GVFNYETETTSVIPAARLFKAFILDGDTLFPQVAPQAISSVENISGNGGPGTIKKISFPEGFPFKYVKDRVDEVDHTNFKYNYSVIEGGPIGDTLEKISNEIKIVATGDGGSILKISNKYHTKGDHEVKAEQVKASKEMGETLLRAVESYLLAHSDAYN
